According to paper PMC5103296, “New structural insight of C-terminal region of Syntenin-1, enhancing the molecular dimerization and inhibitory function related on Syndecan-4 signaling” (Scientific Reports, 2016):
Where two headings read alike, the source gives them in different places. Values belong to the molecule of their own block, whether it stands above or below them.

Legend:
syndecan-4-YFP = syndecan-4-YFP (UniProt P34901); assay: FRET or BRET; FRET after acceptor (YFP) photobleaching in REFs expressing syndecan-4-YFP and PKM-CFP
[1] = target: the molecule itself; assay: crystal structure; syntenin-1 mixed with 4C2 at a 1:4 molar ratio; micro batch under oil; 0.2 M lithium sulfate monohydrate, 0.1 M Tris hydrochloride pH 8.5, 30% PEG 4000; 2.8 Å
[2] = target: the molecule itself; assay: SEC; HiLoad 16/600 Superdex 75; 20 mM sodium phosphate, 100 mM NaCl, 0.01% NaN3, 5 mM dithiothreitol, pH 7.0; mass from calibration with standards
[3] = target: the molecule itself; assay: as above; remark: listed apart in the source
[4] = target: T1, syntenin-1 PDZ2 construct containing the C-terminal tail (PDZ2C); assay: as above; conditions: both partners purified
T1 chain: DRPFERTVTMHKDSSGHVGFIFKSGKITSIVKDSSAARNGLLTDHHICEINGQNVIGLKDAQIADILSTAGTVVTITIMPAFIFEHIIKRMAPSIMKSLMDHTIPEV

syndecan-4-YFP, sequence (P34901 24-202): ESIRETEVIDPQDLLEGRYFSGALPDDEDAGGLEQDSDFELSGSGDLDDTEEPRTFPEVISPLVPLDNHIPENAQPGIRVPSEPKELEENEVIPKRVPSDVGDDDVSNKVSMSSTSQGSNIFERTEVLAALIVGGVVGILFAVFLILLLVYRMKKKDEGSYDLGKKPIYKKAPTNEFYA

FRET efficiency (syndecan-4-YFP): 6.39%
Molecule: PKC catalytic domain (PKM)-CFP (domain or fragment)

B1: syndecan-4 cytoplasmic domain peptide corresponding to the C2 region (4C2) (peptide)
peptide: APTNEFYA
notes: C2 region of the cytoplasmic domain of rat syndecan-4, residues 195-202; Seen as a dimer in the crystal of the syntenin-1/4C2 complex; also called syndecan peptide; source: synthetic peptide (Anygen Inc.)
binding result [1]: binds

B2: His-tagged syntenin-1 (His-STN) (domain or fragment)
chain: AEIKQGIREVILCKDQDGKIGLRLKSVDNGIFVQLVQANSPASLVGLRFGDQVLQINGENCAGWSSDKAHKVLKQAFGEKITMTIRDRPFERTVTMHKDSSGHVGFIFKSGKITSIVKDSSAARNGLLTDHHICEINGQNVIGLKDAQIADILSTAGTVVTITIMPAFIFEHIIKRMAPSIMKSLMDHTIPEV
notes: syntenin-1 (STN), recombinant construct with PDZ1, PDZ2 and the C-terminal region; printed M.W 21.8 kDa; The residue numbers (H210, V211) fit the rat protein (surmised); also called STN-1; source: recombinant, purified (Ni-NTA)
stoichiometry N [2]: 2
stoichiometry N [3]: 2

stoichiometry N [4]: 2
B3: syntenin-1 PDZ2 construct containing the C-terminal tail (PDZ2C) (domain or fragment)
chain: DRPFERTVTMHKDSSGHVGFIFKSGKITSIVKDSSAARNGLLTDHHICEINGQNVIGLKDAQIADILSTAGTVVTITIMPAFIFEHIIKRMAPSIMKSLMDHTIPEV
modifications: limits not given; same start as PDZ2 through the native C-terminus, consistent with the printed 11.7 kDa; homodimer by gel filtration / limits not given; same start as PDZ2 through the native …
